Test [1] addresses T1, NRP2-Fc (R&D Systems #2215-N2) (human, UniProt O60462 23-864, limits assumed).
T1 construct: Bought reagent; also called human NRP2; Neuropilin 2; not shown: Fc of the bought fusion
Briefly: SPR, WARS WHEP immobilised, 20 nM NRP2 as analyte.

The target in test [2] is T1, NRP2-Fc (R&D Systems #2215-N2). Briefly: SPR, MARS Fc-WHEP immobilised, 20 nM NRP2 as analyte.
Test [3] shares this target. Briefly: SPR, GARS Fc-WHEP immobilised, 20 nM NRP2 as analyte.
Test [4] shares this target. Briefly: SPR (column: Binding to NRP2 observed by SPR).
For test [5], the target named is T2, NRP2a-GFP fusion protein on HEK293T cells (human, UniProt O60462 23-931).
T2 construct: Transiently transfected HEK293T cells, fixed before staining; also called NRP2v2-GFP; cell-expressed NRP2a; not shown: GFP and any linker of the Origene clone
Briefly: immunofluorescence microscopy, competition on HEK293T cells overexpressing NRP2v2-GFP, GFP Bright gate; VEGF-C titrated, competitor 175 nM Fc-HRS(2-60)/anti-Fc-PE. How it is done:
HEK293T cells previously transfected with NRP2v2-GFP were passed the night before staining to 96 well Greiner Clear flat bottomed Microplates pre-coated with collagen coating solution. Supernatants were removed and cells were washed 1 time with binding buffer. Cells were then fixed with 50 μL of 3.7% methanol-free formaldehyde for 20 minutes at room temperature. Cells were washed 2× with binding buffer and then blocked with 100 μL of blocking buffer for 1 hour at room temperature. The cells were then washed one time with binding buffer and then incubated with 50 μL of staining complex overnight at 4 degrees Celsius. […] The Hoechst stain was replaced with 1×PBS and subsequently read on an IN Cell Analyzer 2200. 20× images were acquired and analyzed using In Cell Analyzer 1000 Workstation software. Segmentation of the cell mask was achieved using the GFP channel, and the average PE signal intensity was determined within this mask above a threshold intensity of 5000 (termed GFP Bright cells).

B1: WARS WHEP (other, UniProt P23381 8-64, looked up)
chain: SLLELFNSIATQGELVRSLKAGNASKDEIDSAVKMLVSLKMSYKAAAGEDYKADCPP
notes: domain: WHEP domain; also called WHEP domain of WARS with a V5/His tag; not shown: V5/His tag
Take B1: the binding result in test [1] is on record as “no binding (tested: 20 nM)”.

B2: MARS Fc-WHEP (Fc fusion, UniProt P56192 841-897, looked up)
chain: QIQALMDEVTKQGNIVRELKAQKADKNEVAAEVAKLLDLKKQLAVAEGKPPEAPKGK
notes: domain: WHEP domain; also called Fc domain fused to the WHEP domain of MARS; not shown: Fc domain
On to B2, for which, in test [2], the binding result is “no binding (tested: 20 nM)”.

B3: GARS Fc-WHEP (Fc fusion, UniProt P41250 63-119, looked up)
chain: VLAPLRLAVRQQGDLVRKLKEDKAPQVDVDKAVAELKARKRVLEAKELALQPKDDIV
notes: domain: WHEP domain; also called Fc domain fused to the WHEP domain of GARS; not shown: Fc domain
Consider B3, for which the binding result in test [3] is on record as “no binding (tested: 20 nM)”.

B4: VEGF-A145 (R&D Systems #7626-VE-CF) (ligand, human, UniProt P15692-6 27-171, looked up)
chain: APMAEGGGQNHHEVVKFMDVYQRSYCHPIETLVDIFQEYPDEIEYIFKPSCVPLMRCGGCCNDEGLECVPTEESNITMQIMRIKPHQGQHIGEMSFLQHNKCECRPKKDRARQEKKSVRGKGKGQKRKRKKSRYKSWSVCDKPRR
For the molecule B4, the binding result in test [4] was “no binding”.

B5: Recombinant Human VEGF-C Protein (R&D Systems cat 2179-VC-025/CF) (ligand, UniProt P49767 103-227, looked up)
chain: TEETIKFAAAHYNTEILKSIDNEWRKTQCMPREVCIDVGKEFGVATNTFFKPPCVSVYRCGGCCNSEGLQCMNTSTSYLSKTLFEITVPLSQGPKPVTISFANHTSCRCMSKLDVYRQVHSIIRR
notes: Reagent of the cell immunofluorescence assay; Its catalogue number differs from that of the SPR reagent
With B5, the “IC50 (read off the curve)” value in test [5] is ~2 nM.

B6: VEGF-A121 (Peprotech #100-20A) (ligand, human, UniProt P15692-9 27-147, looked up)
chain: APMAEGGGQNHHEVVKFMDVYQRSYCHPIETLVDIFQEYPDEIEYIFKPSCVPLMRCGGCCNDEGLECVPTEESNITMQIMRIKPHQGQHIGEMSFLQHNKCECRPKKDRARQEKCDKPRR
On to B6, for which the binding result in test [4] is listed as “no binding”.
